In paper PMC3424535 one finds binding signal data, which are given here for two molecules.

The data set addresses T1, McrB-N (N-terminal DNA-binding domain of McrB) (Escherichia coli, UniProt P15005 1-161).
T1 sequence: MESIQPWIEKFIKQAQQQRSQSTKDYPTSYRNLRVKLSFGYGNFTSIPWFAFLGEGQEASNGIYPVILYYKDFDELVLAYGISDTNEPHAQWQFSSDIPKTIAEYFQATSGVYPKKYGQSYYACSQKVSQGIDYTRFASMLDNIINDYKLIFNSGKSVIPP
Description: pyrrolo-dC fluorescence.

B1: p/m (dsDNA)
DNA 1: ATCTCTCTATTCACCGGTATTCTCTCTTTC
DNA 2: GAAAGAGAGAATACCGGTGAATAGAGAGAT
modifications: pyrrolo-dC at position 14 of strand 1; 5mC at position 14 of strand 2
For the molecule B1, the binding signal was ~4 fold increase of pyrrolo-dC fluorescence (not affinity).

B2: p/p (dsDNA)
DNA 1: B1 DNA 1
DNA 2: B1 DNA 2
modifications: pyrrolo-dC at position 14 of each strand (first C of ACCGGT)
B2: the binding signal was 2.6 fold increase of pyrrolo-dC fluorescence (not affinity).
